“Also recorded” adds a separate entry of the source.
Legend:
uterine contractions = experiment: clinical observation of pregnant women with symptoms of likely premature birth (cardiotocography, arterial pressure, heart rate); format: in vivo, human
Experimental: Three pregnant women having symptoms indicating the likelihood of premature birth have been observed while in their 34-36th week of pregnancy. […] Arterial pressure, heart rate and skin coloring were evaluated. The women were clearly aware of the contractions and of the pain caused by such contractions.
The women were administered 100 Units of synthetic Parathormone 1-34 (two vials according to Examples 1 and 2) by rapid infusion (10 minutes), diluted in 200 cc of physiological solution. Two blood samples were taken before and after infusion and the serum was frozen and stored at -20° C. for the evaluation of the mineral elements (calcium, phosphorous, magnesium, alkaline phosphatase, parathormone, progesterone, estradiol).

rat uterus = details: in vitro, studies reported in the literature; cited from earlier work
[1] = test system: contractions induced by PGF2alpha; experiment: contractions induced by PGF2alpha; format: in vivo; details: PGF2alpha 1 mg/kg; PTH 4×10^-4 mg/Kg; FIG. 4 vs FIG. 3
Text: Furthermore. Parathormone, has also been essayed for the contractions induced by PGF2alpha according to the technique described in the British Journal of Pharmacology 93: 185-191 (1988).

human myometrium = experiment: in vitro motility of fragments of myometrium of pregnant women, contraction induced by oxytocin; details: PTH 8.5×10^-8 M, oxytocin 1×10^-2 U, myometrium taken during Caesarean birth, FIG. 2 vs FIG. 1
Text: Experimental Trials on the in vitro motility of fragments of myometrium of pregnant women

[2] = three pregnant women, 34-36th week, 100 Units by rapid infusion (10 minutes)

Q: Which “arterial pressure and heart rate of the mother” value (uterine contractions; 100 Units by rapid infusion) does the source give for Parathormone 1-34 here?
A: did not show variations of worthwhile note

Q: What about the “patient-reported uterine contractions and pain caused by the contractions” value (uterine contractions; 100 Units by rapid infusion, pain particularly in the lumbar-sacral region) of the same molecule?
A: immediate disappearance of uterine contractions and of pain

Q: And the fetal heart beat (uterine contractions; cardiotocography, 40 minutes monitoring, 100 Units by rapid infusion, FIG. 5)?
A: did not show variations and remained within the normal limits

Q: What about the “cardiotocography waves referring to uterine contractions” value (uterine contractions; period of monitoring 40 minutes, 100 Units by rapid infusion, FIG. 5) of the same molecule?
A: disappearance of waves referring to uterine contractions

Q: What about the “efficacy on uterine contractility” value (uterine contractions; [2]) of the same molecule?
A: efficacy of Parathormone on uterine contractility

Q: What about the “side effects in mother and fetus” value (uterine contractions; [2]) of the same molecule?
A: no side effects have been noted either in the mother or the fetus; also recorded: no side effects were noted in relation to the infusion of the drug

B1: Parathormone (protein, UniProt P01270 32-115, looked up)
Parathyroid hormone: SVSEIQLMHNLGKHLNSMERVEWLRKKLQDVHNFVALGAPLAPRDAGSQRPRKKEDNVLVESHEKSLGEADKADVNVLTKAKSQ
modifications: Parathyroid hormone
notes: intact (whole) human parathyroid hormone
Q: Which results are given for B1?
A: action on contractility of the rat uterus induced by oxytocin, acetylcholine and prostaglandin (rat uterus): inhibitory action; effect on contractions induced by PGF2alpha (intensity and duration) [1]: clear inhibitory effect both in terms of intensity and duration; effect on contraction of human myometrium induced by oxytocin (human myometrium): net inhibitory effect; effect on contraction of human myometrium induced by oxytocin (human myometrium; listed as intact human parathormone): inhibitory effect (flat trace)
